IC50 of inhibition of CGI-58-stimulated mATGL TG hydrolase activity, dose-response with full-length hG0S2 data for 1 molecule are collected here from paper PMC4239610, “A Peptide Derived from G0/G1 Switch Gene 2 Acts as Noncompetitive Inhibitor of Adipose Triglyceride Lipase” (The Journal of Biological Chemistry, 2014).

The target in this assay is T1, murine adipose triglyceride lipase, Strep fusion (Strep-mATGL) (mouse) (UniProt Q8BJ56).
T1 sequence: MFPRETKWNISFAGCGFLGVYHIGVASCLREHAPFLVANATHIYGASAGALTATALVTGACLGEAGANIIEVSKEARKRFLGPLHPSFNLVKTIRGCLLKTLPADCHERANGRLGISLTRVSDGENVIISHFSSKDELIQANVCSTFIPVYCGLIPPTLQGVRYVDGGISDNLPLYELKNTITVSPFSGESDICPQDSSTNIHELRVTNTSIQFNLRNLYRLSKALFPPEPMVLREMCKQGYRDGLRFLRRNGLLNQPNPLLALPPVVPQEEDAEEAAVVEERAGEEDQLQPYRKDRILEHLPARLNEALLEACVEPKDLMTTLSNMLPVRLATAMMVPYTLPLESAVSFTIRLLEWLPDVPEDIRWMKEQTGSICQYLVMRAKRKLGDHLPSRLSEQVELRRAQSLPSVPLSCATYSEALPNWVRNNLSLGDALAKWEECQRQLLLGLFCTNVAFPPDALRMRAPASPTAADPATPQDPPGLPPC

B1: human G0/G1 switch gene 2 protein, full length (hG0S2) (natural protein)
chain: METVQELIPLAKEMMAQKRKGKMVKLYVLGSVLALFGVVLGLMETVCSPFTAARRLRDQEAAVAELQAALERQALQKQALQEKGKQQDTVLGGRALSNRQHAS
For the molecule B1, the IC50 of inhibition of CGI-58-stimulated mATGL TG hydrolase activity, dose-response with full-length hG0S2 turned out to be 19 nM.
